Experimental findings from patent US20140206607A1 (INDIANA UNIVERSITY RESEARCH AND TECHNOLOGY, published 2014) are described below.

Numbered stars: 1 amine (or outer) side, 2 acyl side, 3 side chain; on linkers, the order of the positions; unused ones are H or OH. Square brackets hold non-standard residues; d marks the D form. Primed or numbered codes have the meaning given here. Side chains are listed from the residue outwards. Ends that are not written are not given here. * marks the point of attachment. 40K‑TE PEG = 40 kDa PEG covalently bound via thioether, formed by reaction of the free thiol of the peptide (Cys side chain) with an iodoacetic-functionalized PEG; 20K‑TE PEG″ = 20 kDa PEG attached via a thioether, formed by reacting the free thiol of the peptide with an iodoacetic-functionalized PEG; 12K‑ME PEG = 12 kDa PEG bound via maleimido-thioether; γGlu = O=C(O)[C@H](CCC(=O)[*:2])N[*:1]; Palmitoyl = CCCCCCCCCCCCCCCC(=O)*; Aib = CC(C)(N)C(=O)O

For one experiment, the target named is glucagon receptor (UniProt P47871 26-477, limits assumed). Description: cell-based or functional assay.
Chain of glucagon receptor (P47871 26-477 limits assumed): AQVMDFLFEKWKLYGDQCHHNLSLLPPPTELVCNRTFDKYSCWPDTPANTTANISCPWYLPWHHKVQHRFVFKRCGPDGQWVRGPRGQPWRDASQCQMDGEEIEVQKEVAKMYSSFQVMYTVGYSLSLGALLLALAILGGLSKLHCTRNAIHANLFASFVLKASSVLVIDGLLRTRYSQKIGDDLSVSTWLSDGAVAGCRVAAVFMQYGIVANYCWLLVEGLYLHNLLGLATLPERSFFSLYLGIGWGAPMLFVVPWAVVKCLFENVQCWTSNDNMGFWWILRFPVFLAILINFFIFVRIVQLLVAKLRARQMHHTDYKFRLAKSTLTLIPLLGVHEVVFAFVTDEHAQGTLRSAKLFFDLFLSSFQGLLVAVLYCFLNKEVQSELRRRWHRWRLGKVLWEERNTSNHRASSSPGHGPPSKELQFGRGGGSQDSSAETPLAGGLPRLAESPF
In the case of H[dS]QGTFTSDK([γGlu-adamantylacetyl])SKYLDERAAQDFVQWLLDT-NH2 [peptide of SEQ ID NO: 48], the “EC50 (nM) at glucagon receptor” value was found to be 0.026 nM.

For the molecule H[Aib]QGTFTSDYSKYLDEKRA[Aib]EFVC(40K‑TE PEG)WLLDT-NH2 [peptide of SEQ ID NO: 13], the “EC50 (nM) at glucagon receptor” value worked out at 0.141 nM.

Consider H[dS]QGTFTSDK([γGlu-Palmitoyl])SKYLDEQAAKEFIC(12K‑ME PEG)WLLDT-NH2 [peptide of SEQ ID NO: 43], for which the “EC50 (nM) at glucagon receptor” value amounted to 0.02 nM.

Take H[Aib]QGTFTSDYSKYLDEKRA[Aib]EFV[Aib]WLLC(40K‑TE PEG)T-NH2 [peptide of SEQ ID NO: 42]: the “EC50 (nM) at glucagon receptor” value was found to be 1.01 nM.

H[Aib]QGTFTSDYSKYLDEK[Aib]AKEFVC(40K‑TE PEG)WLLDT-NH2 [peptide of SEQ ID NO: 52]: the “EC50 (nM) at glucagon receptor” value turned out to be 4.5 nM.

H[Aib]QGTFTSDYSKYLDEKRA[Aib]EFVC(40K‑TE PEG)WLLDT-OH [peptide of SEQ ID NO: 45]: the “EC50 (nM) at glucagon receptor” value came out at 0.651 nM.

Take H[Aib]QGTFTSDYSKYLDEKRA[Aib]EFVC(40K‑TE PEG)WLLDGGPSSGAPPPS-NH2 [peptide of SEQ ID NO: 47]: the “EC50 (nM) at glucagon receptor” value is 0.591 nM.

Consider H[Aib]QGTFTSDYSKYLDEKRA[Aib]DFVC(40K‑TE PEG)WLLDT-NH2 [peptide of SEQ ID NO: 54], for which the “EC50 (nM) at glucagon receptor” value was found to be 0.939 nM.

Consider H[dS]QGTFTSDK([γGlu-Palmitoyl])SKYLDEQAAKEFIC(20K‑TE PEG″)WLLDT-NH2 [peptide of SEQ ID NO: 44], for which the “EC50 (nM) at glucagon receptor” value turned out to be 0.023 nM.

As to H[dS]QGTFTSDK(EDTA amide)SKYLDERAAQDFVQWLLDGGPSSGAPPPS-NH2 [peptide of SEQ ID NO: 55], the “EC50 (nM) at glucagon receptor” value worked out at 4.34 nM.

As to H[Aib]QGTFTSDYSKYLD[Aib]KRA[Aib]EFVC(40K‑TE PEG)WLLDGGPSSGAPPPS-NH2 [peptide of SEQ ID NO: 46], the “EC50 (nM) at glucagon receptor” value amounted to 0.227 nM.

Turning to H[Aib]QGTFTSDYSKYLDEKRA[Aib]EFVC(40K‑TE PEG)WLL[Aib]T-NH2 [peptide of SEQ ID NO: 41], the “EC50 (nM) at glucagon receptor” value amounted to 0.309 nM.

In the case of H[Aib]QGTFTSDYSKYLD[Aib]KRA[Aib]EFVC(40K‑TE PEG)WLLDT-NH2 [peptide of SEQ ID NO: 38], the “EC50 (nM) at glucagon receptor” value is 0.141 nM.

With H[Aib]QGTFTSDYSKYLD[Aib]KRAKEFVQWLLC(40K‑TE PEG)T-OH [peptide of SEQ ID NO: 39], the “EC50 (nM) at glucagon receptor” value is 0.852 nM.

For the molecule H[Aib]QGTFTSDYSKYLD[Aib]KRAKEFVQWLLDTC(40K‑TE PEG)-NH2 [peptide of SEQ ID NO: 40], the “EC50 (nM) at glucagon receptor” value is 1.19 nM.

In another experiment the target is GLP-1 receptor (UniProt P43220 24-463, limits assumed). Description: cell-based or functional assay.
For the molecule H[dS]QGTFTSDK([γGlu-adamantylacetyl])SKYLDERAAQDFVQWLLDT-NH2 [peptide of SEQ ID NO: 48], the “EC50 (nM) at GLP-1 receptor” value amounted to 0.039 nM.

For H[Aib]QGTFTSDYSKYLDEKRA[Aib]EFVC(40K‑TE PEG)WLLDT-NH2 [peptide of SEQ ID NO: 13], the “EC50 (nM) at GLP-1 receptor” value came to 0.067 nM.

Take H[dS]QGTFTSDK([γGlu-Palmitoyl])SKYLDEQAAKEFIC(12K‑ME PEG)WLLDT-NH2 [peptide of SEQ ID NO: 43]: the “EC50 (nM) at GLP-1 receptor” value stood at 0.011 nM.

In the case of H[Aib]QGTFTSDYSKYLDEKRA[Aib]EFV[Aib]WLLC(40K‑TE PEG)T-NH2 [peptide of SEQ ID NO: 42], the “EC50 (nM) at GLP-1 receptor” value was determined as 0.117 nM.

In the case of H[Aib]QGTFTSDYSKYLDEK[Aib]AKEFVC(40K‑TE PEG)WLLDT-NH2 [peptide of SEQ ID NO: 52], the “EC50 (nM) at GLP-1 receptor” value was determined as 0.054 nM.

Take H[Aib]QGTFTSDYSKYLDEKRA[Aib]EFVC(40K‑TE PEG)WLLDT-OH [peptide of SEQ ID NO: 45]: the “EC50 (nM) at GLP-1 receptor” value came out at 1.44 nM.

For the molecule H[Aib]QGTFTSDYSKYLDEKRA[Aib]EFVC(40K‑TE PEG)WLLDGGPSSGAPPPS-NH2 [peptide of SEQ ID NO: 47], the “EC50 (nM) at GLP-1 receptor” value came out at 0.052 nM.

Turning to H[Aib]QGTFTSDYSKYLDEKRA[Aib]DFVC(40K‑TE PEG)WLLDT-NH2 [peptide of SEQ ID NO: 54], the “EC50 (nM) at GLP-1 receptor” value stood at 0.097 nM.

With H[dS]QGTFTSDK([γGlu-Palmitoyl])SKYLDEQAAKEFIC(20K‑TE PEG″)WLLDT-NH2 [peptide of SEQ ID NO: 44], the “EC50 (nM) at GLP-1 receptor” value was found to be 0.017 nM.

On to H[dS]QGTFTSDK(EDTA amide)SKYLDERAAQDFVQWLLDGGPSSGAPPPS-NH2 [peptide of SEQ ID NO: 55], for which the “EC50 (nM) at GLP-1 receptor” value amounted to 0.108 nM.

For the molecule H[Aib]QGTFTSDYSKYLD[Aib]KRA[Aib]EFVC(40K‑TE PEG)WLLDGGPSSGAPPPS-NH2 [peptide of SEQ ID NO: 46], the “EC50 (nM) at GLP-1 receptor” value amounted to 0.136 nM.

In the case of H[Aib]QGTFTSDYSKYLDEKRA[Aib]EFVC(40K‑TE PEG)WLL[Aib]T-NH2 [peptide of SEQ ID NO: 41], the “EC50 (nM) at GLP-1 receptor” value worked out at 0.074 nM.

With H[Aib]QGTFTSDYSKYLD[Aib]KRA[Aib]EFVC(40K‑TE PEG)WLLDT-NH2 [peptide of SEQ ID NO: 38], the “EC50 (nM) at GLP-1 receptor” value is 0.31 nM.

As to H[Aib]QGTFTSDYSKYLD[Aib]KRAKEFVQWLLC(40K‑TE PEG)T-OH [peptide of SEQ ID NO: 39], the “EC50 (nM) at GLP-1 receptor” value stood at 1.28 nM.

In the case of H[Aib]QGTFTSDYSKYLD[Aib]KRAKEFVQWLLDTC(40K‑TE PEG)-NH2 [peptide of SEQ ID NO: 40], the “EC50 (nM) at GLP-1 receptor” value stood at 0.653 nM.
